Legend:
[1] = biological target: pKal catalytic domain Mutant 4 (human) (UniProt P03952); assay: equilibrium Ki,app, fluorogenic substrate, tight binding fit
[2] = biological target: pKal catalytic domain Mutant 4 (human) (UniProt P03952); assay: equilibrium Ki,app, enzyme inhibition with fluorogenic substrate, tight binding fit

Sequence of pKal catalytic domain Mutant 4 (human) (P03952 391-638, change not shown): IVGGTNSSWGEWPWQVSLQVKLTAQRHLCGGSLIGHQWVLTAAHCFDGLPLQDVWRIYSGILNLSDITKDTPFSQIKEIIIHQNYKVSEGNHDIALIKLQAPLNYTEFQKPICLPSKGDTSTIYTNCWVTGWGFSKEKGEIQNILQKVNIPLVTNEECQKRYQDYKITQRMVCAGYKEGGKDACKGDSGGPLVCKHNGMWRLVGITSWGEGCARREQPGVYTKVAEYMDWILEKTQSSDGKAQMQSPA

Binder	Ki [1] [nM]	Ki [2] [nM]
X115-A03 (antibody, V domains shown) VH: EVQLLESGGGLVQPGGSLRLSCAASGFTFSHYIMMWVRQAPGKGLEWVSGIYSSGGITVYADSVKGRFTISRDNSKNTLYLQMNSLRAEDTAVYYCAWRRIGVPRRDSFDMWGQGTMVTVSS VL: DIQMTQSPSTLSASVGDRVTITCRASQSISSWLAWYQQKPGKAPKLLIYKASTLESGVPSRFSGSGSGTEFTLTISSLQPDDFATYYCQQYNTYWTFGQGTKVEIK	0.13	0.13
X115-G04 (antibody, V domains shown) VH: EVQLLESGGGLVQPGGSLRLSCAASGFTFSHYIMMWVRQAPGKGLEWVSGIYSSGGITVYADSVKGRFTISRDNSKNTLYLQMNSLRAEDTAVYYCAYRRTGVPRRDEFDIWGQGTMVTVSS VL: DIQMTQSPSTLSASVGDRVTITCRASQSISSWLAWYQQKPGKAPKLLIYKASTLESGVPSRFSGSGSGTEFTLTISSLQPDDFATYYCQQYNTYWTFGQGTKVEIK	0.3	0.3
X115-D01 (antibody, V domains shown) VH: EVQLLESGGGLVQPGGSLRLSCAASGFTFSIYSMHWVRQAPGKGLEWVSSIYPSRGMTWYADSVKGRFTISRDNSKNTLYLQMNSLRAEDTAVYYCAYRRTGIPRRDAFDIWGQGTMVTVSS VL: DIQMTQSPSTLSASVGDRVTITCRASQSISSWLAWYQQKPGKAPKLLIYKASTLESGVPSRFSGSGSGTEFTLTISSLQPDDFATYYCQQYNTYWTFGQGTKVEIK	0.12	0.12
X115-F02 (Fab, V domains shown) VH: EVQLLESGGGLVQPGGSLRLSCAASGFTFSHYIMMWVRQAPGKGLEWVSGIYSSGGITVYADSVKGRFTISRDNSKNTLYLQMNSLRAEDTAVYYCAYRRIGVPRRDEFDIWGQGTMVTVSS VL: DIQMTQSPSTLSASVGDRVTITCRASQSISSWLAWYQQKPGKAPKLLIYKASTLESGVPSRFSGSGSGTEFTLTISSLQPDDFATYYCQQYNTYWTFGQGTKVEIK	0.1	0.1
M35-G04 (antibody, V domains shown) VH: EVQLLESGGGLVQPGGSLRLSCAASGFTFSYYHMSWVRQAPGKGLEWVSVISPSGGSTKYADSVKGRFTISRDNSKNTLYLQMNSLRAEDTAVYYCARGGSSDYAWGSYRRPYYFDYWGQGTLVTVSS VL: DIQMTQSPATLSLSPGERATLSCRASQSVSSYLAWYQQKPGQAPRLLIYDASNRATGIPARFSGSGSGTDFTLTISSLEPEDFAVYYCQQRSNWPRGFTFGPGTKVDIK	0.8	0.8
M29-D09 (Fab, V domains shown) VH: EVQLLESGGGLVQPGGSLRLSCAASGFTFSWYTMVWVRQAPGKGLEWVSYIYPSGGATFYADSVKGRFTISRDNSKNTLYLQMNSLRAEDTAVYYCAMGSYDYIWGFYSDHWGQGTLVTVSS VL: QSALTQPPTVSVSPGQTARITCSGNKLGDKYVAWYQQKPGQSPMLVIYQDTKRPSRVSERFSGSNSANTATLSISGTQALDEADYYCQAWDSSIVIFGGGTRLTVL	0.39	0.39
M145-D11 (Fab, V domains shown) VH: EVQLLESGGGLVQPGGSLRLSCAASGFTFSHYRMSWVRQAPGKGLEWVSSIYPSGGRTVYADSVKGRFTISRDNSKNTLYLQMNSLRAEDTAVYYCAKDKFEWRLLFRGIGNDAFDIWGQGTMVTVSS VL: QSVLTQPPSVSVSPGQTASITCSGDKLGDKYTSWYQQRPGQSPVLVIYQDIKRPSGIPERFSGSNSGNTATLTISGTQAMDEADYYCQAWDSPNARVFGSGTKVTVL	0.21	0.21

More lines, now with the values ahead:

Ki [1] [nM]	Ki [2] [nM]	Binder
0.25	0.25	DX-2922 (antibody, V domains shown) VH: EVQLLESGGGLVQPGGSLRLSCAASGFTFSHYLMTWVRQAPGKGLEWVSYISPSGGHTIYADSVKGRFTISRDNSKNTLYLQMNSLRAEDTAVYYCARVARGIAARSRTSYFDYWGQGTLVTVSS VL: EIVLTQSPGTLSLSPGERATLSCRTSQFVNSNYLAWYQQKPGQAPRLLIYGASSRATGIPDRFSGSGSGTDFTLTISRLEPEDFAVYYCQQSSRTPWTFGQGTKVEIK
0.14	0.14	X115-B07 (antibody, V domains shown) VH: EVQLLESGGGLVQPGGSLRLSCAASGFTFSHYLMTWVRQAPGKGLEWVSYISPSGGHTIYADSVKGRFTISRDNSKNTLYLQMNSLRAEDTAVYYCAMVGQGIRGRSRTSYFAQWGQGTLVTVSS VL: EIVLTQSPGTLSLSPGERATLSCRTSQFVNSNYLAWYQQKPGQAPRLLIYGASSRATGIPDRFSGSGSGTDFTLTISRLEPEDFAVYYCQQSSRTPWTFGQGTKVEIK
2.9	–	M6-D09 (antibody, V domains shown) VH: EVQLLESGGGLVQPGGSLRLSCAASGFTFSFYYMVWVRQAPGKGLEWVSVIYPSGGITVYADSVKGRFTISRDNSKNTLYLQMNSLRAEDTAVYYCARDKWAVMPPYYYYAMDVWGQGTTVTVSS VL: DIQMTQSPSSLSASVGDRVTITCRASQSIRNYLNWYQQKPGKAPNLLIYAASTLQSGVPARFSGSGSGTDFTLTISSLQPEDFATYYCQQLSGYPHTFGQGTKLEIK
–	2.9	M06-D09 (antibody, V domains shown) VH: EVQLLESGGGLVQPGGSLRLSCAASGFTFSFYYMVWVRQAPGKGLEWVSVIYPSGGITVYADSVKGRFTISRDNSKNTLYLQMNSLRAEDTAVYYCARDKWAVMPPYYYYAMDVWGQGTTVTVSS VL: DIQMTQSPSSLSASVGDRVTITCRASQSIRNYLNWYQQKPGKAPNLLIYAASTLQSGVPARFSGSGSGTDFTLTISSLQPEDFATYYCQQLSGYPHTFGQGTKLEIK

Source: patent US20260184815A1
